Results: patent US20040142381A1, “Methods for designing IGF1 receptor modulators for therapeutics” (priority 2002, published 2004)

How the values were obtained:
[1] = system: T1, synthetic peptide KKKSPGEYVNIEFG, based on the IRS-1 phosphorylation site Tyr 895
T1 sequence: KKKSPGEYVNIEFG

[2] = system: T2, synthetic peptide substrate KKEEEEYMMMMG
T2 sequence: KKEEEEYMMMMG

[3] = target: synthetic peptide substrate …; assay: cell-based or functional assay
[4] = substrate: CC[C@H](C)[C@H](NC(=O)[C@H](CC(N)=O)NC(=O)[C@@H](NC(=O)[C@H](Cc1ccc(O)cc1)NC(=O)[C@H](CCC(=O)O)NC(=O)CNC(=O)[C@@H]1CCCN1C(=O)[C@H](CO)NC(=O)[C@H](CCCCN)NC(=O)[C@H](CCCCN)NC(=O)[C@@H](N)CCCCN)C(C)C)C(=O)N[C@@H](CCC(=O)O)C(=O)N[C@@H](Cc1ccccc1)C(=O)NCC(=O)O; assay: Km of IRS-1 Tyr 895-derived peptide substrate for IGF1RK; type: biochemical, human; details: other: peptide as substrate of IGF1RK

Q: Which Km [1] does the source give for “IGF1RK (phosphorylation state not stated)” here?
A: The Km for this peptide was determined to be 128 µM for IGF1RK

Q: For IGF1RK, bis-phosphorylated form (2P), which Peptide Km [2] is on record?
A: 130 µM

Q: With IGF1RK, mono-phosphorylated form (1P) as the molecule, how does the Peptide Km [2] read?
A: 620 µM

Q: With “IGF1RK, tris-phosphorylated, activated form (3P)” as the molecule, how does the Peptide Km [2] read?
A: 120 µM

Q: Which Km for peptide ([γ-32P]ATP and phosphocellulose binding assay) [3] does the source give for “IGF1RK, tris-phosphorylated, activated form (3P) (enzyme)” here?
A: 150 µM

Q: Which “induction time of autophosphorylation at varying enzyme concentration (continuous spectrophotometric assay)” value does the source give for “IGF1RK, unphosphorylated form (0P): tyrosine kinase domain of the human insulin-like growth factor 1 receptor, residues 956-1,256” here?
A: the phosphorylation reaction was concentration dependent

Q: What about the Peptide Km [2] of the same molecule?
A: 1300 µM

B1: IGF1RK (Homo sapiens) (protein)
chain: VYVPDEWEVAREKITMSRELGQGSFGMVYEGVAKGVVKDEPETRVAIKTVNEAASMRERIEFLNEASVMKEFNCHHVVRLLGVVSQGQPTLVIMELMTRGDLKSYLRSLRPEMENNPVLAPPSLSKMIQMAGEIADGMAYLNANKFVHRDLAARNCMVAEDFTVKIGDFGMTRDIYETDYYRKGGKGLLPVRWMSPESLKDGVFTTYSDVWSFGVVLWEIATLAEQPYQGLSNEQVLRFVMEGGLLDKPDNCPDMLFELMRMCWQYNPKMRPSFLEIISSIKEEMEPGFREVSFYYSEENK
notes: encoding residues 956-1,256 of the human insulin-like growth factor 1 receptor (IGF1RK); made in house; host or cells: Spodoptera frugiperda (Sf9) cells, baculovirus
Q: With B1 as the molecule, how does the Km [4] read?
A: 128 µM
